assay: soluble on expression in E. coli; label from the status in PepcDB or PDB records

| Sequence | soluble on expression in E. coli |
| --- | --- |
| MGSDKIHHHHHHMRQVLQKDKRDVQLSKALSYLLRHTAVKEKLTIDSNGYTPLKELLSHNRLKTHKCTVDDIHRIVKENDKQRFHIKTLGADEEWICATQGHSIKSIQPSDEVLVPITEASQLPQELIHGTNLQSVIKIIESGAISPMSRNHVHLSPGMLHAKGVISGMRSSSNVYIFIDCHSPLFFQTLKMFRSLNNVYLSSSIPVELIQKVVVKGNLKDEEKLDTLRRILHERNIPLEKI | not soluble |
| MGSDKIHHHHHHMVHSTPTTFAGSKSARPRVAIAGFQHETNTFAPFGAPFDDFVRGGGWPAMTTGAAILDVFPPIEIPIGGFISAAKDTYELIPLVWAAAEPTSFVSDDAFERIAGMICDGIARAGPLDAIYLDLHGAMVVESYQDGEGELLRRVREIVGRDIPIMISLDFHANVTEAMVELSDGITIFRTYPHIDLADTGGRAFSLLEQRIRRGRPFIKAFRKTPFLIPLPAQCTDLEPCMSLYAGLQERVKGPVLNVDVALGFPLADIRECGPAVVAYGIDEVAVTAAADMQLSDMLEAEGRFHMSLLDVKEAVEHAARNGRKGSLIVLADVQDNPGCGGTSDTIGLLKGMVEGGLRNGVLGLLWDPETAEAAHTAGLGAELDVRLGGRYGYDSEPYLARVRVEALSDGVFKANGPCLGGVQVDLGRMARLLILNPGSSVQVVVSSVRFQCLDQDLLRAVGVEPRDQSVVAVKSAVHFRADFAPIAEEILTVESPGAHWCRNDILDYKNLRDGVRRMPISLATQPSEVKIAERRH | not soluble |
| MGSDKIHHHHHHMSRVETIINELSLIASNPRKAMEDYKKETGKGAVGIMPVYAPEELVHAAGFLPMGIWGGQKSISKARTYLPPFACSIMQSVMEMQLEGVYDDLEAVIFSVPCDTLKCLSQKWKGKSPVIVFTHPQNRKLEAANKFLVEEFKLVREKLEKILNVKITDEAINNSIEVYNENRKVMREFSDIAGQYSKTISAAARHAVIKARFFMEKSKHTAMVRELINELKAMPAEECGKKVVLTGIMAEPNEVLDILTENGFTVVADDLAQESRQFRLDVPAGTDPLYRLAEWWQQFDGCALATNVKKPRGQMLMDMVKKYDADAVIVCMMKFCDPEEFDYPIYYSQFEEAGIKSLYIEIDQESTSFEQIKTRVQSFGEML | not soluble |
| PMEQVVRIHASSGTTGKPTVVGYTQNDIDNWANIVARSLRAAGGSAKDKIHVAYGYGLFTGGLGAHYGAERLGATVIPMSGGQTEKQAQLIRDFQPDMIMVTPSYCLNLIEELERQMGGDARGCSLRVGVFGAEPWTLAMRAEIERRLGITALDIYGLSEVMGPGVAMECLETVDGPTI | not soluble |
| MVHTADNAWRAHIPLMYREDFLCSSGVARWNEEFPRHCVVSQHDRHKTKSVLVILFLIAMRNIKNNRGTFTRIKDRLSSALKSPASLFRRSPEISLREDILSWKKSPHSLAASEYGGSDLLVQFLKQQTSDDYVDFWLESGEYRWTRTKPGRKRDIEAQRIYDKFVYGECPRKIAHLEKMCFVSRQGPTGRDVFICAQAYVGTNFPKDSYKKFLQDPIYLNLLKTVSSGATQLNE | not soluble |
| SSNAKWDQWSSDWQTWNAKWDQWSNDWNAWRSDWQAWKDDWARWNQRWDNWAT | soluble |
| MSLQMDQYLAQPLMIQEAQLVTIASGTTLSRELAQLTEQAWIQDSFVAEWVRRFHPELSKIKAGTYKLQPDMSLEQALALLVSGKEHQFSITFVEGSRFQEWRDILASNENITQQLTGLTEIDIAKALGIEHEKLEGLFLAETYHFTKGTSDVEILKRANQKLEKFLQVTWEHRQEGLPIQTPYEALILASIIEKETSIAEERERIAAVFINRLNKRMRLQTDPTVIYGMGETYDGNIRKKDLRARTPYNTYVINGLPPTPIAMPGEASIYAALNPEQSDYLYFVASGEGGHNFSKTLADHNRAVRAYLKKLRTKQEGHHHHHH | soluble |
| MIYIGLPQWSHPKWVRLGITSLEEYARHFNCVEGNTTLYALPKPEVVLRWREQTTDDFRFCFKFPATISHQAALRHCDDLVTEFLTRMSPLAPRIGQYWLQLPATFGPRELPALWHFLDSLPGEFNYGVEVRHPQFFAKGEEEQTLNRGLHQRGVNQVILDSRPVHAARPHSEAIRDAQRKKPKVPVHAVLTATNPLIRFIGSDDMTQNRELFQVWLQKLAQWHQTTTPYLFLHTPDIAQAPELVHTLWEDLRKTLPEIGAVPAIPQQSSLF | soluble |

Reference: the DeepSol protein solubility set
